Assay results taken from the supplement of paper PMC11865577.

These sequences were tested on TO-N3 (biotin conjugate) (assay: pull-down binding Z-score (relative to library population); higher = stronger binding). Details: RNA library: Library-2.
How it was run: (§1)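 Cy5- or Cy3-end-labelled RNA library (1 μg) was heat-folded in phosphate/NaCl/KCl buffer and incubated 60 min at 25 °C with streptavidin beads carrying 100 pmol biotin-conjugated small molecule. After three washes, bound RNA was eluted in hot SDS and hybridised 20 h at 55.5 °C to a DNA barcode microarray. Binding was scored by subtracting a beads-only control, averaging barcoded replicate probes after dropping highest and lowest, and converting to a Z-score against library mean and standard deviation.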

| Sequence | pull-down binding Z-score |
| --- | --- |
| UUUAAGACACCCUGUACCUUAAA [hsa-mir-3121] | -0.415 |
| UUUACAUAUAAAUUUCUAUUUGU [hsa-mir-4503] | 0.596 |
| UUUACAUGCUACAGUCAAGAUGCGAA [hsa-mir-15b] | 0.275 |
| UUUACCAUUACUUUCAAUGGCAAA [hsa-mir-548a-3] | -1.76 |
| UUUACUUUUGGCCUCAAGUCAUUGCAGUAAA [hsa-mir-4796] | -0.832 |
| UUUAGAAAAGAGAAUUCCAAA [hsa-mir-1252] | -0.315 |
| UUUAGAUUUAAAUAGUGAUUGUCUAG [hsa-mir-29b-1] | 0.194 |
| UUUAGUAUGCCACAUUUCUAAA [hsa-mir-4282] | -0.757 |
| UUUAUGCCUGUUAGCAUGAAAAAAGAGGCUGAGAA [hsa-mir-7515] | -0.368 |
| UUUCAGAUAACUCGGGA [hsa-mir-4320] | 0.116 |
| UUUCCCAUUAUUUUAAUUGCGAA [hsa-mir-570] | -0.927 |
| UUUCUAUAACUGGAUGAAA [hsa-mir-498] | -0.488 |
| UUUCUCUUAUGUGAAAAAAAAGAAG [hsa-mir-525] | -0.463 |
| UUUCUCUUGUCCAAAGGAAAAGAAG [hsa-mir-524] | -0.636 |
| UUUCUCUUGUCUAAAAGAAAAGAAA [hsa-mir-518f] | -0.8 |
| UUUCUGAAUUUGUGAGA [hsa-mir-4463] | -0.277 |
| UUUCUGUUGUCUAAAAGAAAAGAAA [hsa-mir-527] | -0.383 |
| UUUCUGUUGUCUAAAAGAAGAGAAA [hsa-mir-518a-2] | 0.171 |
| UUUCUGUUGUCUGAAAGAAAAGAAC [hsa-mir-523] | -0.0983 |

The sequences below were run on TO-3-N3-2 (biotin conjugate) in the same assay as above. Details: RNA library: Library-2.
How it was run: as §1

| Sequence | pull-down binding Z-score |
| --- | --- |
| UUCGCAUUAUUUAAUGAUGCCCA [hsa-mir-323b] | -0.241 |
| UUCGCGGUUGGGCU [hsa-mir-3143] | 0.258 |
| UUCUAAUGCCAAGAA [hsa-mir-1279] | -0.117 |
| UUCUAGUCCCUAUUAGACUAGAA [hsa-mir-5681a] | -0.506 |
| UUCUCCUUGGGAAAAACAGAGAA [hsa-mir-605] | -0.016 |
| UUCUCGAGUCUAUGGCUCCGGCCGAGAG [hsa-mir-219a-1] | 0.358 |
| UUCUCGGUUGGCCGCAGACUCGUACAAGAA [hsa-mir-219b] | 0.0156 |
| UUCUCUUUAUUUAUGAUGAA [hsa-mir-494] | -0.639 |
| UUCUGCUGAAGACUGGUCUCUUCAUGUGUGAG [hsa-mir-6133] | -0.0941 |
| UUCUGCUGUGCCUUACAGCAGUAGAA [hsa-mir-3179-4_3179-1_3179-3_3179-2] | -0.383 |
| UUCUGUGGUUUGAAAGGAA [hsa-mir-1323] | 0.281 |
| UUCUGUUGUCAGAAAGAAGAGAA [hsa-mir-1283-1] | -0.107 |
| UUCUGUUGUCUGAAAGAAAAGAA [hsa-mir-1283-2] | -0.145 |
| UUCUGUUGUCUGAAAGAAACCAA [hsa-mir-518d] | -0.0975 |
| UUCUUCCUGGAGUCGGGGAAAAG [hsa-mir-320e] | -0.0301 |
| UUCUUGUACGAGUCUGCGGCCAACCGAGAA [hsa-mir-219a-2] | -0.366 |
| UUCUUUGAGGAUCUGGCCUAAAGAG [hsa-mir-202] | 0.362 |
| UUCUUUUUUCUGAAAUUCUUCAGGAAGGA [hsa-mir-3167] | 0.823 |
| UUGAACUUCAUUUCUCAUGCUCA [hsa-mir-6870] | 0.277 |
| UUGAAUCACACACACAUUUCAA [hsa-mir-4803] | -0.154 |
| UUGACCAAUCAUCUUAUUGACUAGA [hsa-mir-6502] | -0.177 |
| UUGAGAACCAG [hsa-mir-4328] | 0.215 |
| UUGAGAAGUAAUUGA [hsa-mir-548ak] | -0.0284 |
| UUGAGCAUCUUCUGGGCAGCUGA [hsa-mir-7854] | 0.147 |
| UUGAGGAGAGCACCACAGUGGUCAUCACACAG [hsa-mir-622] | 0.109 |
| UUGAGGGACAUGGUUAAUGGAAUUGUCUCA [hsa-mir-342] | 0.0248 |

| Sequence | pull-down binding Z-score |
| --- | --- |
| UUGAUGUCAGAAUGAGGUGUACCAA [hsa-mir-4714] | 0.1 |
| UUGAUGUCAGGUUAUCCCCAAGCAUAACCUCAC [hsa-mir-4639] | -0.186 |
| UUGAUUCAGUAAAACAUUCAA [hsa-mir-891b] | -0.0671 |
| UUGCCCAA [hsa-mir-548bb] | -0.317 |
| UUGCUCACGGUAAGAAAAACAUGAGUAA [hsa-mir-8062] | 0.384 |
| UUGCUCUUUGGUGGAGAUA [hsa-mir-6074] | -0.00756 |
| UUGCUUAAG [hsa-mir-924] | -0.269 |
| UUGGCACAGGGAAGCGAGUCUGCCAA [hsa-mir-195] | 0.354 |
| UUGGCCUUUAUUUUCAAUGGCAAG [hsa-mir-548b] | -0.117 |
| UUGGCGUAGUGAAAUAUAUAUUAAACACCAA [hsa-mir-16-2] | 0.371 |
| UUGGCGUUAAGAUUCUAAAAUUAUCUCCAG [hsa-mir-16-1] | -0.307 |
| UUGGGAUCCACCUUUCUCUCGA [hsa-mir-196b] | 0.21 |
| UUGGGGAGGAGCUAAGAAGCCCCUACAGGGCCCAG [hsa-mir-4257] | 0.24 |
| UUGGUCCGUAUGUGUGGUGCCACCGG [hsa-mir-1908] | -0.0706 |
| UUGGUCUUUCCCCUGUGGUCCCAA [hsa-mir-2909] | 0.152 |
| UUGGUGACAGCAGCAGUAGAGUUGCCAG [hsa-mir-6501] | -0.445 |
| UUGGUGUGUAUUGCCUUGUCAA [hsa-mir-1179] | -0.217 |
| UUGUAAUAGUGUAGAAUGUUGGUUAAC [hsa-mir-591] | 0.537 |
| UUGUCGUUAAAAAUAGCAA [hsa-mir-548n] | -0.149 |
| UUGUCUCCUCAAGUUGCGACGAGACAG [hsa-mir-4645] | -0.451 |
| UUGUGAAACACAGGUGUUUUUUAACCUCAC [hsa-mir-6841] | 0.0964 |
| UUGUGAUGUUUACCGUUUAAAUCCACGG [hsa-mir-125b-1] | -0.313 |
| UUGUGGCAAUACAG [hsa-mir-8068] | -0.166 |
| UUGUGGCUUUGGGUGGAUAUUAAUCAGCCACAG [hsa-mir-383] | 0.274 |
| UUGUGUAUGUACUUAGCUGUACUAUA [hsa-mir-1244-1_1244-4_1244-2_1244-3] | -0.417 |
| UUGUGUCCAUCAUGCAACAA [hsa-mir-802] | -0.248 |

| Sequence | pull-down binding Z-score |
| --- | --- |
| UUGUGUGGUAUCCGUAUAGUCACAG [hsa-mir-10b] | -0.634 |
| UUGUUACAUUUUAGGAUUGCUUGCCCCUUGCUCCAAUGGUGCAGGCAGAAGAAAUGCAAACAA [hsa-mir-3973] | -0.0806 |
| UUGUUCGUUGCAUUUUUAGGAACAA [hsa-mir-3613] | -0.623 |
| UUGUUCUGAUGUACUACGACAA [hsa-mir-7-3] | -0.294 |
| UUGUUGUUAUUACU [hsa-mir-378d-1] | -0.259 |
| UUUAAGACACCCUGUACCUUAAA [hsa-mir-3121] | -0.305 |
| UUUACAUAUAAAUUUCUAUUUGU [hsa-mir-4503] | 0.317 |
| UUUACAUGCUACAGUCAAGAUGCGAA [hsa-mir-15b] | 0.0265 |
| UUUACCAUUACUUUCAAUGGCAAA [hsa-mir-548a-3] | -0.786 |
| UUUACUUUUGGCCUCAAGUCAUUGCAGUAAA [hsa-mir-4796] | -0.635 |
| UUUAGAAAAGAGAAUUCCAAA [hsa-mir-1252] | -0.206 |
| UUUAGAUUUAAAUAGUGAUUGUCUAG [hsa-mir-29b-1] | -0.0424 |
| UUUAGUAUGCCACAUUUCUAAA [hsa-mir-4282] | -0.374 |
| UUUAUGCCUGUUAGCAUGAAAAAAGAGGCUGAGAA [hsa-mir-7515] | 0.165 |
| UUUCAGAUAACUCGGGA [hsa-mir-4320] | -0.229 |
| UUUCCCAUUAUUUUAAUUGCGAA [hsa-mir-570] | -0.363 |
| UUUCUAUAACUGGAUGAAA [hsa-mir-498] | -0.431 |
| UUUCUCUUAUGUGAAAAAAAAGAAG [hsa-mir-525] | -0.174 |
| UUUCUCUUGUCCAAAGGAAAAGAAG [hsa-mir-524] | -0.376 |
| UUUCUCUUGUCUAAAAGAAAAGAAA [hsa-mir-518f] | -0.281 |
| UUUCUGAAUUUGUGAGA [hsa-mir-4463] | -0.191 |
| UUUCUGUUGUCUAAAAGAAAAGAAA [hsa-mir-527] | -0.186 |
| UUUCUGUUGUCUAAAAGAAGAGAAA [hsa-mir-518a-2] | -0.0883 |
| UUUCUGUUGUCUGAAAGAAAAGAAC [hsa-mir-523] | 0.0657 |
